Data: article PMC2975869

Tests used:
[1] = molecular target: endogenous PTH1R of A10 cells (rat (endogenous in A10)) (UniProt P25961)
[2] = molecular target: HA-tagged PTH1R (parathyroid hormone type 1 receptor), wild type (UniProt Q03431); test: radioligand binding
[3] = molecular target: endogenous PTH1R of A10 cells (rat (endogenous in A10)) (UniProt P25961); test: radioligand binding

Chain of UniProt P25961 (P25961 27-591): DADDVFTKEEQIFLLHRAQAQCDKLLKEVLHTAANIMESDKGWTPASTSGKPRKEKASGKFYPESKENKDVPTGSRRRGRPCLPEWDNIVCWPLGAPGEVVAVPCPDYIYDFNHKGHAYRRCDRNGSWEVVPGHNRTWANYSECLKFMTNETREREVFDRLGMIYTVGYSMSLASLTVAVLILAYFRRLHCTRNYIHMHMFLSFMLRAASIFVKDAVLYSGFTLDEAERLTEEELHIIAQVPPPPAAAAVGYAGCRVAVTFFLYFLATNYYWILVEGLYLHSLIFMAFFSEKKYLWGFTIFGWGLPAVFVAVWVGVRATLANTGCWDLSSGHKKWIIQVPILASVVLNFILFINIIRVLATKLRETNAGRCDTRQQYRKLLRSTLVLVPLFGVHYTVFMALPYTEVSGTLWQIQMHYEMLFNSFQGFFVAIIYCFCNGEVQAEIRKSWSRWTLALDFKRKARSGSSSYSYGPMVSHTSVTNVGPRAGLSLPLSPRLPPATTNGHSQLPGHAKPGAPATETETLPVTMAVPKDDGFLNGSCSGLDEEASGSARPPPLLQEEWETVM

cAMP production in A10 cells in response to PTHrP(1-36), 30 min at 37 °C [1]	Substance	Total Binding (TB), cells co-transfected with EBP50 [2]	Total Binding (TB), cells co-transfected with pcDNA3 [2]	Total Binding (TB), cells transfected with EBP50 [3]	Total Binding (TB), cells transfected with pcDNA3 [3]
3 fold	PTHrP (1-36)-NH2 (peptide)	–	–	–	–
–	[125I]-PTH(1-34)NH2 (peptide)	1980	1290	2470	1550
